Experiments:
Biotin-huCGRPaSA = molecular target: T1, Biotin-huCGRPaSA (human, not fully specified; biotin (position not given)); experiment: ELISA, supernatant; relative to chimeric C245
T1 construct: exact construct ('aSA') not explained; also called Biotin CGRPaSA; full-length (1-37) CGRP
T1 peptide: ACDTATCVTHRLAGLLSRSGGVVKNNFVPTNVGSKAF
How it was run: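 Plates coated with biotin-CGRPaSA at 1.0 μg/mL (90 min, 37°C) and blocked with 2% BSA. Humanized antibodies and chimeric C245 reference, 2.5-fold serial dilutions from 1000 ng/mL, bound 60 min at 37°C. Detection by HRP anti-human IgG (Fc), TMB 15 min, read at 450/620 nm.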

CGRP antigen = experiment: cell-based or functional assay

Binder | Relative binding activity, % (Biotin-huCGRPaSA) [%] | IC50 (CGRP antigen) [µg/mL] | relative activity (%) vs Ref(TEVA) (CGRP antigen) [%]
hu71 (antibody, V domains shown, 1F5 HC-4/1F5 LC1-2) VH: QVQLVQSGSELKKPGASVKVSCKASGYTFTDFNMHWVRQAPGQGLEWMGYIYPYNGDVVYNQNFTNRFVLSVDSSSSTAYLQISSLKAEDTAVYYCAREGLGGYWGQGTLVTVSS VL: EIVLTQSPATLSLSPGERATLSCKASQNIDFDGYAYMNWYQHKPGQAPRVLIYSVFNLESGIPARFSGSGSGTDFTLTISSLEPEDFAVYYCQQSHEVPYTFGQGTKLEIK | 120 | 0.0404 | 77
hu63 (antibody, V domains shown, 1F5 HC-3/3E5 LC-1) VH: QVQLVQSGAEVKKPGASVKVSCKASGYTFTDFNMHWVRQAPGQGLEWMGYIYPYNGDVVYNQNFTNRVTLTVDTSSSTAYMELRSLRSDDTAVYYCAREGLGGYWGQGTLVTVSS VL: DIVLTQSPDSLAVSLGERATINCKASQNIDYDGYTYLNWYQQKPGQPPKVLIYSIFNLESGVPDRFSGSGSGTDFTLTISSLQAEDVAVYYCQQSNEVPYTFGQGTKLEIK | 122 | 0.05 | 62
hu90 (antibody, V domains shown, 1F5 HC-5/3H10 LC2-1) VH: QVQLVQSGAEVKKPGASVKVSCKASGYTFIDFNMHWVRQAPGQRLEWMGYIYPYNADVVYNQDFTNRVTLTVDTSSSTAYMELSSLRSEDTAVYYCAREGLGGYWGQGTLVTVSS VL: DIVLTQSPDSLAVSLGERATINCKASQNIDYGGYSYMNWYQQKPGQPPKVLIYSVFNLESGVPDRFSGSGSGTDFTLTISSLQAEDVAVYYCQQSNEAPYTFGQGTKLEIK | 102 | 0.058 | 53
hu131 (antibody, V domains shown, 2B8 HC1-3/1A2 LC2-1) VH: QVQLVQSGAEVKKPGASVKVSCKASGYTFTDYNMHWVRQAPGQGLEWMGNIYPYNAGTVYNQKFNNRVTLTVDTSSSTAYMELSRLRSDDTAVYYCAREGLGGYWGQGTLVTVSS VL: DIVLTQSPASLAVSPGQRATITCKASQNIDYDGYAYLNWYQQKPGQPPKVLIYSVFNLESGVPARFSGSGSGTDFTLTINPVEANDTANYYCQQSNEFPYTFGQGTKLEIK | 107 | 0.0425 | 80
hu128 (antibody, V domains shown, 2B8 HC1-2/3E5 LC-1) VH: QVQLVQSGAEVKKPGASVKVSCKASGYTFTDYNMHWVRQAPGQGLEWMGNIYPYNGGTVYNQKFNNRVTLTVDTSSSTAYMELRSLRSDDTAVYYCAREGLGGYWGQGTLVTVSS VL: DIVLTQSPDSLAVSLGERATINCKASQNIDYDGYTYLNWYQQKPGQPPKVLIYSIFNLESGVPDRFSGSGSGTDFTLTISSLQAEDVAVYYCQQSNEVPYTFGQGTKLEIK | 117 | 0.109 | 28
hu45 (antibody, V domains shown, 1F5 HC-2/1F5 LC1-2) VH: QVQLVQSGAEVKKPGASVKVSCKASGYTFTDFNMHWVRQAPGQRLEWMGYIYPYNGDVVYNQNFTNRVTLTVDTSSSTAYMELSSLRSEDTAVYYCAREGLGGYWGQGTLVTVSS VL: EIVLTQSPATLSLSPGERATLSCKASQNIDFDGYAYMNWYQHKPGQAPRVLIYSVFNLESGIPARFSGSGSGTDFTLTISSLEPEDFAVYYCQQSHEVPYTFGQGTKLEIK | 119 | 0.108 | 33
hu154 (antibody, V domains shown, 3E5 HC-1/3E5 LC-1) VH: QVQLVQSGAEVKKPGASVKVSCKTSGYTFTDYNMHWVRQAPGQRLEWMGYISPYNGGTAYNQKFKFRVTLTVDTSSSTAYMELSSLRSEDTAVYYCAREGLGGYWGQGTLVTVSS VL: DIVLTQSPDSLAVSLGERATINCKASQNIDYDGYTYLNWYQQKPGQPPKVLIYSIFNLESGVPDRFSGSGSGTDFTLTISSLQAEDVAVYYCQQSNEVPYTFGQGTKLEIK | 121 | 0.0905 | 36
hu64 (antibody, V domains shown, 1F5 HC-3/3H10 LC2-1) VH: QVQLVQSGAEVKKPGASVKVSCKASGYTFTDFNMHWVRQAPGQGLEWMGYIYPYNGDVVYNQNFTNRVTLTVDTSSSTAYMELRSLRSDDTAVYYCAREGLGGYWGQGTLVTVSS VL: DIVLTQSPDSLAVSLGERATINCKASQNIDYGGYSYMNWYQQKPGQPPKVLIYSVFNLESGVPDRFSGSGSGTDFTLTISSLQAEDVAVYYCQQSNEAPYTFGQGTKLEIK | 116 | 0.0699 | 44
hu100 (antibody, V domains shown, 2A2 HC-1/2B8 LC2-1) VH: QVQLVQSGAEVKKPGASVKVSCKASGYTFTDYNMHWVRQAPGQRLEWMGYVYPYNGGSAYNQKFKSRVTLTVDTSSSTAYMELSSLRSEDTAVYYCAREGLGGYWGQGTLVTVSS VL: DIVLTQSPDSLAVSLGERATINCQASQNIDGNTYMNWYQQKPGQPPKVLIYSIFNLESGVPDRFSGSGSGTDFTLTISSLQAEDVAVYYCQQSNDYPYTFGQGTKLEIK | 133 | 0.11 | 28
hu58 (antibody, V domains shown, 1F5 HC-3/1F5 LC1-2) VH: QVQLVQSGAEVKKPGASVKVSCKASGYTFTDFNMHWVRQAPGQGLEWMGYIYPYNGDVVYNQNFTNRVTLTVDTSSSTAYMELRSLRSDDTAVYYCAREGLGGYWGQGTLVTVSS VL: EIVLTQSPATLSLSPGERATLSCKASQNIDFDGYAYMNWYQHKPGQAPRVLIYSVFNLESGIPARFSGSGSGTDFTLTISSLEPEDFAVYYCQQSHEVPYTFGQGTKLEIK | 113 | 0.0619 | 50
hu84 (antibody, V domains shown, 1F5 HC-5/1F5 LC1-2) VH: QVQLVQSGAEVKKPGASVKVSCKASGYTFIDFNMHWVRQAPGQRLEWMGYIYPYNADVVYNQDFTNRVTLTVDTSSSTAYMELSSLRSEDTAVYYCAREGLGGYWGQGTLVTVSS VL: EIVLTQSPATLSLSPGERATLSCKASQNIDFDGYAYMNWYQHKPGQAPRVLIYSVFNLESGIPARFSGSGSGTDFTLTISSLEPEDFAVYYCQQSHEVPYTFGQGTKLEIK | 111 | 0.256 | 19
hu129 (antibody, V domains shown, 2B8 HC1-2/3H10 LC2-1) VH: QVQLVQSGAEVKKPGASVKVSCKASGYTFTDYNMHWVRQAPGQGLEWMGNIYPYNGGTVYNQKFNNRVTLTVDTSSSTAYMELRSLRSDDTAVYYCAREGLGGYWGQGTLVTVSS VL: DIVLTQSPDSLAVSLGERATINCKASQNIDYGGYSYMNWYQQKPGQPPKVLIYSVFNLESGVPDRFSGSGSGTDFTLTISSLQAEDVAVYYCQQSNEAPYTFGQGTKLEIK | 117 | 0.088 | 39
hu89 (antibody, V domains shown, 1F5 HC-5/3E5 LC-1) VH: QVQLVQSGAEVKKPGASVKVSCKASGYTFIDFNMHWVRQAPGQRLEWMGYIYPYNADVVYNQDFTNRVTLTVDTSSSTAYMELSSLRSEDTAVYYCAREGLGGYWGQGTLVTVSS VL: DIVLTQSPDSLAVSLGERATINCKASQNIDYDGYTYLNWYQQKPGQPPKVLIYSIFNLESGVPDRFSGSGSGTDFTLTISSLQAEDVAVYYCQQSNEVPYTFGQGTKLEIK | 112 | 0.0979 | 48
hu87 (antibody, V domains shown, 1F5 HC-5/2B8 LC2-1) VH: QVQLVQSGAEVKKPGASVKVSCKASGYTFIDFNMHWVRQAPGQRLEWMGYIYPYNADVVYNQDFTNRVTLTVDTSSSTAYMELSSLRSEDTAVYYCAREGLGGYWGQGTLVTVSS VL: DIVLTQSPDSLAVSLGERATINCQASQNIDGNTYMNWYQQKPGQPPKVLIYSIFNLESGVPDRFSGSGSGTDFTLTISSLQAEDVAVYYCQQSNDYPYTFGQGTKLEIK | 138 | 0.124 | 38
hu145 (antibody, V domains shown, 3E5 HC-1/1A2 LC2-2) VH: QVQLVQSGAEVKKPGASVKVSCKTSGYTFTDYNMHWVRQAPGQRLEWMGYISPYNGGTAYNQKFKFRVTLTVDTSSSTAYMELSSLRSEDTAVYYCAREGLGGYWGQGTLVTVSS VL: DIVLTQSPASLAVSPGQRATITCKASQNIDYDGYAYLNWYQQKPGQPPKVLIYSVFNLESGVPARFSGSGSGTDFTLTINPVEADDTANYYCQQSNEFPYTFGQGTKLEIK | 119 | 0.0978 | 35
hu167 (antibody, V domains shown, 3E5 HC-2/3E5 LC-1) VH: QVQLVQSGAEVKKPGASVKVSCKASGYTFTDYNMHWVRQAPGQRLEWMGYISPYNGGTAYNQKFKFRVTLTVDTSSSTAYMELSSLRSEDTAVYYCAREGLGGYWGQGTLVTVSS VL: DIVLTQSPDSLAVSLGERATINCKASQNIDYDGYTYLNWYQQKPGQPPKVLIYSIFNLESGVPDRFSGSGSGTDFTLTISSLQAEDVAVYYCQQSNEVPYTFGQGTKLEIK | 101 | 0.125 | 26
hu193 (antibody, V domains shown, 3E5 HC-4/3E5 LC-1) VH: QVQLVQSGAEVKKPGASVKVSCKTSGYTFTDYNMHWVRQAPGQRLEWMGYISPYNAGTAYNQKFKFRVTLTVDTSSSTAYMELSSLRSEDTAVYYCAREGLGGYWGQGTLVTVSS VL: DIVLTQSPDSLAVSLGERATINCKASQNIDYDGYTYLNWYQQKPGQPPKVLIYSIFNLESGVPDRFSGSGSGTDFTLTISSLQAEDVAVYYCQQSNEVPYTFGQGTKLEIK | 100 | 0.0775 | 42
hu32 (antibody, V domains shown, 1F5 HC-1/1F5 LC1-2) VH: QVQLVQSGAEVKKPGASVKVSCKASGYTFIDFNMHWVRQAPGQRLEWMGYIYPYNGDVVYNQNFTNRVTLTVDTSSSTAYMELSSLRSEDTAVYYCAREGLGGYWGQGTLVTVSS VL: EIVLTQSPATLSLSPGERATLSCKASQNIDFDGYAYMNWYQHKPGQAPRVLIYSVFNLESGIPARFSGSGSGTDFTLTISSLEPEDFAVYYCQQSHEVPYTFGQGTKLEIK | 116 | 0.137 | 26

From US20260125454A1 (SHANGHAI JUNSHI BIOSCIENCES, published 2026)
